Test results: patent publication US20230406951A1 (Pfizer, published 2023)

T1: human TNFR2 (human, UniProt P20333 23-461)
T1 construct: expressed on the surface of CHO cells; also called HuTNFR2; TNFRSF1B
T1 sequence: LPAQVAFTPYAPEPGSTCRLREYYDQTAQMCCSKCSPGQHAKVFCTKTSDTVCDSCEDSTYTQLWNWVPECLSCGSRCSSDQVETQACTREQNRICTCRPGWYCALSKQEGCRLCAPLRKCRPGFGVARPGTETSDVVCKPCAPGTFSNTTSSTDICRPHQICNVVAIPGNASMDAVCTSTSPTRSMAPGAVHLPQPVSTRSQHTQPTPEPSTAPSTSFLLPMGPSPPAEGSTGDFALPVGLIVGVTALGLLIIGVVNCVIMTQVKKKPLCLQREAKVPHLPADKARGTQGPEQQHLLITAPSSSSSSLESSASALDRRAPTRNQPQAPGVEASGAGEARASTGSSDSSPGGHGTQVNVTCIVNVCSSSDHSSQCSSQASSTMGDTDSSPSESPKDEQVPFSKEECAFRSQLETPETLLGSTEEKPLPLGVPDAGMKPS


Biological target: T1, human TNFR2
Assay: binding to human TNFR2 CHO cells

Binder | binding result
TetraFab 2171 (antibody, TetraFab) heavy: QVQLVQSGAEVKKPGASVKVSCKVSGFSFPSSGVDWVRQAPGQGLEWLGVTRGEGSTHYNQKFQGRVTITKDTSKSTVYMELSSLRSEDTAVYYCASGEWDEGFVYWGQGTLVTVSSASTKGPSVFPLAPSSKSTSGGTAALGCLVKDYFPEPVTVSWNSGALTSGVHTFPAVLQSSGLYSLSSVVTVPSSSLGTQTYICNVNHKPSNTKVDKKVEPKSCGGGGSQVQLVQSGAEVKKPGASVKVSCKVSGFSFPSSGVDWVRQAPGQGLEWLGVTRGEGSTHYNQKFQGRVTITKDTSKSTVYMELSSLRSEDTAVYYCASGEWDEGFVYWGQGTLVTVSSASTKGPSVFPLAPSSKSTSGGTAALGCLVKDYFPEPVTVSWNSGALTSGVHTFPAVLQSSGLYSLSSVVTVPSSSLGTQTYICNVNHKPSNTKVDKKVEPKSCDKTHTCPPCPAPEAAGAPSVFLFPPKPKDTLMISRTPEVTCVVVDVSHEDPEVKFNWYVDGVEVHNAKTKPREEQYNSTYRVVSVLTVLHQDWLNGKEYKCKVSNKALPAPIEKTISKAKGQPREPQVYTLPPSREEMTKNQVSLTCLVKGFYPSDIAVEWESNGQPENNYKTTPPVLDSDGSFFLYSKLTVDKSRWQQGNVFSCSVMHEALHNHYTQKSLSLSPGK light: DIQLTQSPSFLSASVGDRVTITCKASQNVGTAVAWYQQKPGKAPKLLIYAASTLQSGVPSRFSGSGSGTEFTLTISSLQPEDFATYYCLQYSSYPLTFGGGTKVEIKRTVAAPSVFIFPPSDEQLKSGTASVVCLLNNFYPREAKVQWKVDNALQSGNSQESVTEQDSKDSTYSLSSTLTLSKADYEKHKVYACEVTHQGLSSPVTKSFNRGEC | no binding
TetraFab 2057 (antibody, TetraFab) heavy: QVQLVQSGAEVKKPGASVKVSCKVSGFSFPSSGVDWVRQAPGQGLEWLGVTLGHGSTHYNQKFQGRVTITKDTSKSTVYMELSSLRSEDTAVYYCASGEWDEGFVYWGQGTLVTVSSASTKGPSVFPLAPSSKSTSGGTAALGCLVKDYFPEPVTVSWNSGALTSGVHTFPAVLQSSGLYSLSSVVTVPSSSLGTQTYICNVNHKPSNTKVDKKVEPKSCGGGGSQVQLVQSGAEVKKPGASVKVSCKVSGFSFPSSGVDWVRQAPGQGLEWLGVTLGHGSTHYNQKFQGRVTITKDTSKSTVYMELSSLRSEDTAVYYCASGEWDEGFVYWGQGTLVTVSSASTKGPSVFPLAPSSKSTSGGTAALGCLVKDYFPEPVTVSWNSGALTSGVHTFPAVLQSSGLYSLSSVVTVPSSSLGTQTYICNVNHKPSNTKVDKKVEPKSCDKTHTCPPCPAPEAAGAPSVFLFPPKPKDTLMISRTPEVTCVVVDVSHEDPEVKFNWYVDGVEVHNAKTKPREEQYNSTYRVVSVLTVLHQDWLNGKEYKCKVSNKALPAPIEKTISKAKGQPREPQVYTLPPSREEMTKNQVSLTCLVKGFYPSDIAVEWESNGQPENNYKTTPPVLDSDGSFFLYSKLTVDKSRWQQGNVFSCSVMHEALHNHYTQKSLSLSPGK light: DIQLTQSPSFLSASVGDRVTITCKASQNVGTAVAWYQQKPGKAPKLLIYAASTLQSGVPSRFSGSGSGTEFTLTISSLQPEDFATYYCQQYSSYPLTFGGGTKVEIKRTVAAPSVFIFPPSDEQLKSGTASVVCLLNNFYPREAKVQWKVDNALQSGNSQESVTEQDSKDSTYSLSSTLTLSKADYEKHKVYACEVTHQGLSSPVTKSFNRGEC | no binding

Second part, the binder after the results:

binding result | Binder
no binding | TetraFab 2054 (antibody, TetraFab) heavy: QVQLVQSGAEVKKPGASVKVSCKVSGFSFPSSGVDWVRQAPGQGLEWLGVTKGQGSTHYNQKFQGRVTITKDTSKSTVYMELSSLRSEDTAVYYCASGEWDEGFVYWGQGTLVTVSSASTKGPSVFPLAPSSKSTSGGTAALGCLVKDYFPEPVTVSWNSGALTSGVHTFPAVLQSSGLYSLSSVVTVPSSSLGTQTYICNVNHKPSNTKVDKKVEPKSCGGGGSQVQLVQSGAEVKKPGASVKVSCKVSGFSFPSSGVDWVRQAPGQGLEWLGVTKGQGSTHYNQKFQGRVTITKDTSKSTVYMELSSLRSEDTAVYYCASGEWDEGFVYWGQGTLVTVSSASTKGPSVFPLAPSSKSTSGGTAALGCLVKDYFPEPVTVSWNSGALTSGVHTFPAVLQSSGLYSLSSVVTVPSSSLGTQTYICNVNHKPSNTKVDKKVEPKSCDKTHTCPPCPAPEAAGAPSVFLFPPKPKDTLMISRTPEVTCVVVDVSHEDPEVKFNWYVDGVEVHNAKTKPREEQYNSTYRVVSVLTVLHQDWLNGKEYKCKVSNKALPAPIEKTISKAKGQPREPQVYTLPPSREEMTKNQVSLTCLVKGFYPSDIAVEWESNGQPENNYKTTPPVLDSDGSFFLYSKLTVDKSRWQQGNVFSCSVMHEALHNHYTQKSLSLSPGK light: DIQLTQSPSFLSASVGDRVTITCKASQNVGTAVAWYQQKPGKAPKLLIYAASTLQSGVPSRFSGSGSGTEFTLTISSLQPEDFATYYCQQYSSYPLTFGGGTKVEIKRTVAAPSVFIFPPSDEQLKSGTASVVCLLNNFYPREAKVQWKVDNALQSGNSQESVTEQDSKDSTYSLSSTLTLSKADYEKHKVYACEVTHQGLSSPVTKSFNRGEC
no binding | TetraFab 2055 (antibody, TetraFab) heavy: QVQLVQSGAEVKKPGASVKVSCKVSGFSFPSSGVDWVRQAPGQGLEWLGVTRGEGSTHYNQKFQGRVTITKDTSKSTVYMELSSLRSEDTAVYYCASGEWDEGFVYWGQGTLVTVSSASTKGPSVFPLAPSSKSTSGGTAALGCLVKDYFPEPVTVSWNSGALTSGVHTFPAVLQSSGLYSLSSVVTVPSSSLGTQTYICNVNHKPSNTKVDKKVEPKSCGGGGSQVQLVQSGAEVKKPGASVKVSCKVSGFSFPSSGVDWVRQAPGQGLEWLGVTRGEGSTHYNQKFQGRVTITKDTSKSTVYMELSSLRSEDTAVYYCASGEWDEGFVYWGQGTLVTVSSASTKGPSVFPLAPSSKSTSGGTAALGCLVKDYFPEPVTVSWNSGALTSGVHTFPAVLQSSGLYSLSSVVTVPSSSLGTQTYICNVNHKPSNTKVDKKVEPKSCDKTHTCPPCPAPEAAGAPSVFLFPPKPKDTLMISRTPEVTCVVVDVSHEDPEVKFNWYVDGVEVHNAKTKPREEQYNSTYRVVSVLTVLHQDWLNGKEYKCKVSNKALPAPIEKTISKAKGQPREPQVYTLPPSREEMTKNQVSLTCLVKGFYPSDIAVEWESNGQPENNYKTTPPVLDSDGSFFLYSKLTVDKSRWQQGNVFSCSVMHEALHNHYTQKSLSLSPGK light: DIQLTQSPSFLSASVGDRVTITCKASQNVGTAVAWYQQKPGKAPKLLIYAASTLQSGVPSRFSGSGSGTEFTLTISSLQPEDFATYYCQQYSSYPLTFGGGTKVEIKRTVAAPSVFIFPPSDEQLKSGTASVVCLLNNFYPREAKVQWKVDNALQSGNSQESVTEQDSKDSTYSLSSTLTLSKADYEKHKVYACEVTHQGLSSPVTKSFNRGEC
no binding | TetraFab 2056 (antibody, TetraFab) heavy: QVQLVQSGAEVKKPGASVKVSCKVSGFSFPSSGVDWVRQAPGQGLEWLGVTFQEGSTHYNQKFQGRVTITKDTSKSTVYMELSSLRSEDTAVYYCASGEWDEGFVYWGQGTLVTVSSASTKGPSVFPLAPSSKSTSGGTAALGCLVKDYFPEPVTVSWNSGALTSGVHTFPAVLQSSGLYSLSSVVTVPSSSLGTQTYICNVNHKPSNTKVDKKVEPKSCGGGGSQVQLVQSGAEVKKPGASVKVSCKVSGFSFPSSGVDWVRQAPGQGLEWLGVTFQEGSTHYNQKFQGRVTITKDTSKSTVYMELSSLRSEDTAVYYCASGEWDEGFVYWGQGTLVTVSSASTKGPSVFPLAPSSKSTSGGTAALGCLVKDYFPEPVTVSWNSGALTSGVHTFPAVLQSSGLYSLSSVVTVPSSSLGTQTYICNVNHKPSNTKVDKKVEPKSCDKTHTCPPCPAPEAAGAPSVFLFPPKPKDTLMISRTPEVTCVVVDVSHEDPEVKFNWYVDGVEVHNAKTKPREEQYNSTYRVVSVLTVLHQDWLNGKEYKCKVSNKALPAPIEKTISKAKGQPREPQVYTLPPSREEMTKNQVSLTCLVKGFYPSDIAVEWESNGQPENNYKTTPPVLDSDGSFFLYSKLTVDKSRWQQGNVFSCSVMHEALHNHYTQKSLSLSPGK light: DIQLTQSPSFLSASVGDRVTITCKASQNVGTAVAWYQQKPGKAPKLLIYAASTLQSGVPSRFSGSGSGTEFTLTISSLQPEDFATYYCQQYSSYPLTFGGGTKVEIKRTVAAPSVFIFPPSDEQLKSGTASVVCLLNNFYPREAKVQWKVDNALQSGNSQESVTEQDSKDSTYSLSSTLTLSKADYEKHKVYACEVTHQGLSSPVTKSFNRGEC
